In data set [1] the target is T1, HMO2 (NHP10) (Saccharomyces cerevisiae, UniProt Q03435 1-203).
T1 sequence: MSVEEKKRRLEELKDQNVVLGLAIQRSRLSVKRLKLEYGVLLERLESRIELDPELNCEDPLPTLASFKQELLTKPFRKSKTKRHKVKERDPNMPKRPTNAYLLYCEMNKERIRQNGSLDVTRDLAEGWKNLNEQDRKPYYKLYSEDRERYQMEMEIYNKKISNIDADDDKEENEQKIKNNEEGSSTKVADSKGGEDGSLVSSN
Kind of data set: EMSA.

Data set [2] deals with T1, HMO2 (NHP10). Kind of data set: EMSA. The source holds these as a separate data set. Background: Mobility shift assays separate free from complexed probe on a gel.

This note sets out measurements from article PMC2770664.

Like-named read-outs stand apart in the source and are kept apart here.

B1: 50 bp duplex (dsDNA)
DNA 1: TTCAATCCCCGTCTGTCCCCCGATCCCCTGCTCGTAGGCGTGCTTGACCG
DNA 2: CGGTCAAGCACGCCTACGAGCAGGGGATCGGGGGACAGACGGGGATTGAA
As to B1, in the data set with HMO2 (NHP10) [1], the binding result is “no binding”.

B2: 50 bp duplex with tandem AA and CT loops (dsDNA)
DNA 1: ACAGTGGAGTAGGCTACACCTACTCTTTGTAAGAATTTTGCAAAAAGTAC
DNA 2: GTACTTTTTGCAAAATTCAAACAAAGAGTTCGTGTAGCCTACTCCACTGT
Regarding B2, in the data set with HMO2 (NHP10) [2], the binding result is given as “binds”.
